Experimental data as given in IntAct's records for PubMed 21370995.

Molecular target: kcru_mouse Ckmt1 (UniProt P30275)

effect of a mutation on the interaction: increasing interaction
Substance: Leucine-rich repeat serine/threonine-protein kinase 2 (Homo sapiens), Q5S007 G2019S
